± gives the uncertainty stated by the source.

Data on 43 variants can be found in the Human Domainome abundance scans (Beltran et al. 2025).

B1: Cytoplasmic polyadenylation element-binding protein 2, residues 513 to 575; numbered along this chain, Q7Z5Q1 (parent)
chain: KRVEVKPYVLDDQMCDECQGARCGGKFAPFFCANVTCLQYYCEFCWANIHSRAGREFHKPLVK

Variants of B1 are the subject of the data set. Put plainly: abundance fitness (aPCA) (normalised: wild type 0, dead -1); higher = more abundant; growth selection in yeast, the domain comes from the species named. Particulars: Homo sapiens.
Consider KRVEVKPYVLDDQMCDECQGARCGGKFAPFFCANVTCLQYYCEFCWANIHSRAGREFHIPLVK, for which the abundance fitness is -0.3 ± 0.08.

For the variant KRVEVKPYVLDDQMCDECQGARCGGKFAPFFCANVTCLQYYCEFCWANIHSRAGREFHEPLVK, the abundance fitness amounted to 0.168 ± 0.055.

KRVEVKPYVLDDQMCDECQGARCGGKFAPFFCANVTCLQYYCEFCWANIHSRAGREFHYPLVK: the abundance fitness is -0.351 ± 0.092.

Turning to KRVEVKPYVLDDQMCDECQGARCGGKFAPFFCANVTCLQYYCEFCWANIHSRAGREFHNPLVK, the abundance fitness is -0.248 ± 0.075.

In the case of KRVEVKPYVLDDQMCDECQGARCGGKFAPFFCANVTCLQYYCEFCWANIHSRAGREFHRPLVK, the abundance fitness turned out to be 0.024 ± 0.038.

With KRVEVKPYVLDDQMCDECQGARCGGKFAPFFCANVTCLQYYCEFCWANIHSRAGREFHLPLVK, the abundance fitness is -0.219 ± 0.05.

Turning to KRVEVKPYVLDDQMCDECQGARCGGKFAPFFCANVTCLQYYCEFCWANIHSRAGREFHTPLVK, the abundance fitness is -0.041 ± 0.059.

In the case of KRVEVKPYVLDDQMCDECQGARCGGKFAPFFCANVTCLQYYCEFCWANIHSRAGREFHQPLVK, the abundance fitness is -0.076 ± 0.079.

On to KRVEVKPYVLDDQMCDECQGARCGGKFAPFFCANVTCLQYYCEFCWANIHSRAGREFHGPLVK, for which the abundance fitness was -0.255 ± 0.045.

As for KRVEVKPYVLDDQMCDECQGARCGGKFAPFFCANVTCLQYYCEFCWANIHSRAGREHHKPLVK, the abundance fitness worked out at 0.027 ± 0.044.

On to KRVEVKPYVLDDQMCDECQGARCGGKFAPFFCANVTCLQYYCEFCWANIHSRAGRETHKPLVK, for which the abundance fitness is 0.121 ± 0.061.

As for KRVEVKPYVLDDQMCDECQGARCGGKFAPFFCANVTCLQYYCEFCWANIHSRAGREMHKPLVK, the abundance fitness is 0.144 ± 0.066.

KRVEVKPYVLDDQMCDECQGARCGGKFAPFFCANVTCLQYYCEFCWANIHSRAGRECHKPLVK: the abundance fitness was 0.098 ± 0.064.

On to KRVEVKPYVLDDQMCDECQGARCGGKFAPFFCANVTCLQYYCEFCWANIHSRAGREYHKPLVK, for which the abundance fitness was -0.032 ± 0.077.

For KRVEVKPYVLDDQMCDECQGARCGGKFAPFFCANVTCLQYYCEFCWANIHSRAGREDHKPLVK, the abundance fitness was found to be 0.054 ± 0.073.

On to KRVEVKPYVLDDQMCDECQGARCGGKFAPFFCANVTCLQYYCEFCWANIHSRAGRERHKPLVK, for which the abundance fitness was 0.097 ± 0.038.

As to KRVEVKPYVLDDQMCDECQGARCGGKFAPFFCANVTCLQYYCEFCWANIHSRAGREAHKPLVK, the abundance fitness was determined as 0.125 ± 0.049.

For KRVEVKPYVLDDQMCDECQGARCGGKFAPFFCANVTCLQYYCEFCWANIHSRAGRELHKPLVK, the abundance fitness was found to be 0.091 ± 0.046.

In the case of KRVEVKPYVLDDQMCDECQGARCGGKFAPFFCANVTCLQYYCEFCWANIHSRAGREEHKPLVK, the abundance fitness was determined as 0.117 ± 0.047.

On to KRVEVKPYVLDDQMCDECQGARCGGKFAPFFCANVTCLQYYCEFCWANIHSRAGREGHKPLVK, for which the abundance fitness is 0.166 ± 0.035.

For the variant KRVEVKPYVLDDQMCDECQGARCGGKFAPFFCANVTCLQYYCEFCWANIHSRAGRESHKPLVK, the abundance fitness was determined as 0.129 ± 0.049.

With KRVEVKPYVLDDQMCDECQGARCGGKFAPFFCANVTCLQYYCEFCWANIHSRAGREIHKPLVK, the abundance fitness was -0.109 ± 0.11.

For the variant KRVEVKPYVLDDQMCDECQGARCGGKFAPFFCANVTCLQYYCEFCWANIHSRAGREWHKPLVK, the abundance fitness is 0.026 ± 0.049.

KRVEVKPYVLDDQMCDECQGARCGGKFAPFFCANVTCLQYYCEFCWANIHSRAGREPHKPLVK: the abundance fitness was -0.029 ± 0.052.

On to KRVEVKPYVLDDQMCDECQGARCGGKFAPFFCANVTCLQYYCEFCWANIHSRAGRENHKPLVK, for which the abundance fitness was 0.134 ± 0.076.

As to KRVEVKPYVLDDQMCDECQGARCGGKFAPFFCANVTCLQYYCEFCWANIHSRAGREVHKPLVK, the abundance fitness stood at 0.065 ± 0.048.

On to KRVEVKPYVLDDQMCDECQGARCGGKFAPFFCANVTCLQYYCEFCWANIHSRAGREFCKPLVK, for which the abundance fitness was -0.227 ± 0.062.

For KRVEVKPYVLDDQMCDECQGARCGGKFAPFFCANVTCLQYYCEFCWANIHSRAGREFTKPLVK, the abundance fitness is -0.611 ± 0.082.

As for KRVEVKPYVLDDQMCDECQGARCGGKFAPFFCANVTCLQYYCEFCWANIHSRAGREFQKPLVK, the abundance fitness is -0.663 ± 0.1.

With KRVEVKPYVLDDQMCDECQGARCGGKFAPFFCANVTCLQYYCEFCWANIHSRAGREFRKPLVK, the abundance fitness is -0.763 ± 0.049.

On to KRVEVKPYVLDDQMCDECQGARCGGKFAPFFCANVTCLQYYCEFCWANIHSRAGREFEKPLVK, for which the abundance fitness is -0.442 ± 0.069.

As to KRVEVKPYVLDDQMCDECQGARCGGKFAPFFCANVTCLQYYCEFCWANIHSRAGREFPKPLVK, the abundance fitness was -0.51 ± 0.1.

Regarding KRVEVKPYVLDDQMCDECQGARCGGKFAPFFCANVTCLQYYCEFCWANIHSRAGREFWKPLVK, the abundance fitness is -1.01 ± 0.08.

On to KRVEVKPYVLDDQMCDECQGARCGGKFAPFFCANVTCLQYYCEFCWANIHSRAGREFVKPLVK, for which the abundance fitness is -0.704 ± 0.062.

Turning to KRVEVKPYVLDDQMCDECQGARCGGKFAPFFCANVTCLQYYCEFCWANIHSRAGREFAKPLVK, the abundance fitness was -0.743 ± 0.066.

For the variant KRVEVKPYVLDDQMCDECQGARCGGKFAPFFCANVTCLQYYCEFCWANIHSRAGREFYKPLVK, the abundance fitness is -0.822 ± 0.11.

Turning to KRVEVKPYVLDDQMCDECQGARCGGKFAPFFCANVTCLQYYCEFCWANIHSRAGREFFKPLVK, the abundance fitness was -0.934 ± 0.11.

On to KRVEVKPYVLDDQMCDECQGARCGGKFAPFFCANVTCLQYYCEFCWANIHSRAGREFDKPLVK, for which the abundance fitness is -0.704 ± 0.086.

As for KRVEVKPYVLDDQMCDECQGARCGGKFAPFFCANVTCLQYYCEFCWANIHSRAGREFMKPLVK, the abundance fitness is -0.653 ± 0.091.

Turning to KRVEVKPYVLDDQMCDECQGARCGGKFAPFFCANVTCLQYYCEFCWANIHSRAGREFLKPLVK, the abundance fitness is -0.707 ± 0.061.

As to KRVEVKPYVLDDQMCDECQGARCGGKFAPFFCANVTCLQYYCEFCWANIHSRAGREFIKPLVK, the abundance fitness was -0.679 ± 0.15.

Turning to KRVEVKPYVLDDQMCDECQGARCGGKFAPFFCANVTCLQYYCEFCWANIHSRAGREFKKPLVK, the abundance fitness is -0.384 ± 0.062.

As to KRVEVKPYVLDDQMCDECQGARCGGKFAPFFCANVTCLQYYCEFCWANIHSRAGREFSKPLVK, the abundance fitness is -0.523 ± 0.058.
